Test results from PMC12095920.

B1: apical domain of human CCT7, Q99832 207-376 (domain or fragment)
chain: DSQLVAGVAFKKTFSYAGFEMQPKKYHNPKIALLNVELELKAEKDNAEIRVHTVEDYQAIVDAEWNILYDKLEKIHHSGAKVVLSKLPIGDVATQYFADRDMFCAGRVPEEDLKRTMMACGGSIQTSVNALSADVLGRCQVFEETQIGGERYNFFTGCPKAKTCTFILRG

Legend:
[1] = target: tau^4R construct (four microtubule-binding repeat domains of human tau) (human) (UniProt P10636)
[2] = target: tau^4R construct (four microtubule-binding repeat domains of human tau) (human), P10636
Chain of tau^4R construct (four microtubule-binding repeat domains of human tau) (human), P10636 (P10636 561-689): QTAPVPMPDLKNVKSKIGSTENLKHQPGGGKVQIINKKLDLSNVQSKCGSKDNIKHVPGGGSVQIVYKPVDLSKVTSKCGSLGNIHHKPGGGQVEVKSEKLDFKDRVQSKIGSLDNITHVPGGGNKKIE

Molecule | ThT fluorescence after 23 h in the presence of apiCCT3, relative to tau^4R alone (not shown) [1] | ThT fluorescence after 23 h in the presence of apiCCT7, relative to tau^4R alone [2]
apical domain of human CCT3 (from UniProt P49368 223-383) (domain or fragment) | 2.5% | –
B1 | – | 30%
